# Results reported in patent publication US20210269480A1 (published 2021).
# *1 amine or outer side, *2 acyl side, *3 side chain or, on linkers, in order; H or OH if unused. Bridges are numbered along the chain shown (N, C = ends). Where no end group is shown, it is not given here. [ ]: non-standard residue; d: D form. TATA = O=C(CC[*:1])N1CN(C(=O)CC[*:2])CN(C(=O)CC[*:3])C1; Phe(4-COOH) = N[C@@H](Cc1ccc(C(=O)O)cc1)C(=O)O; 1Nal = N[C@@H](Cc1cccc2ccccc12)C(=O)O; 2Nal = N[C@@H](Cc1ccc2ccccc2c1)C(=O)O; hArg = N=C(N)NCCCC[C@H](N)C(=O)O; 2Pal = N[C@@H](Cc1ccccn1)C(=O)O; Aze = O=C(O)[C@@H]1CCN1; βAla = NCCC(=O)O; Sar = CNCC(=O)O
# T1: human Nectin-4 (human, UniProt Q96NY8 32-349)
# T1 construct: a Gly32-Ser349 FLAG construct is described only under the SPR assay; also called PVRL4
# T1 sequence (looked up): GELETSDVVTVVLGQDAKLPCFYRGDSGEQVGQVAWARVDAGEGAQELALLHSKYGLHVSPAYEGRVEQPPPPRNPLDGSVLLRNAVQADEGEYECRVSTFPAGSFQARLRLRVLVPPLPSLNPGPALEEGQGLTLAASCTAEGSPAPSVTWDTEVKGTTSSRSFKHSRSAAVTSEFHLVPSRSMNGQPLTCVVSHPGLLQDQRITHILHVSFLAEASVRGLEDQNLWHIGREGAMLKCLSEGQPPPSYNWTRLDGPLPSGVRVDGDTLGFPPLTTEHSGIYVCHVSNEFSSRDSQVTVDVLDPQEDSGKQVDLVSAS
# Target: T1, human Nectin-4
# Experiment: FP competition, tracer SEQ ID NO 217
# Description: Peptides were diluted to an appropriate concentration in assay buffer as described in the direct binding assay with a maximum of 5% DMSO, then serially diluted 1 in 2. […] Measurements were conducted as for the direct binding assay, however the gain was determined prior to the first measurement. Data analysis was in Systat Sigmaplot version 12.0 where the mP values were fit to a user defined cubic equation to generate a Ki value: […]
row,Binder,Ki [nM]
1,Ac-CPF[dD]CK[hArg]NWSTPIWC (linker 1-5-15 via TATA) [BCY7821],84
2,QKWCAPLSXYWCNRIC (N-terminal Ac; TATA on 3 Cys) [BCY7640],86
3,"ACPFGCMRNWSWPIWCA (linker 2-6-16 via TATA, also called 80-09-02-N003) [BCY429]",42.6
4,Ac-QKWCAPLSDYWCNRIC (linker 4-12-16 via TATA) [BCY7392],27.2
5,Ac-QK[dA]CAPLSDYWCNRIC (linker 4-12-16 via TATA) [BCY7636],522
6,Ac-QKACAPLSDYWCNRIC (linker 4-12-16 via TATA) [BCY7624],571
7,Ac-Q[dD]WCAPLSDYWCNRIC (linker 4-12-16 via TATA) [BCY7993],38
8,Ac-QKWCAPLSDYWCNAIC (linker 4-12-16 via TATA) [BCY7632],123
9,Ac-QKWCAALSDYWCNRIC (linker 4-12-16 via TATA) [BCY7625],141
10,Ac-QKWCAPLADYWCNRIC (linker 4-12-16 via TATA) [BCY7627],101
11,Ac-CPFK(Ac)CMKNWSWPIWC (linker 1-5-15 via TATA) [BCY7611],205
12,ACWPLDPYWCGRICA (linker 2-10-14 via TATA) [BCY430],310
13,Ac-[dD]CPFGCMKNWSWPIWC (linker 2-6-16 via TATA) [BCY7606],34
14,Ac-C[Aze]FGCMKNWSWPIWC (linker 1-5-15 via TATA) [BCY7608],42
15,"Ac-CPFGCMKNWSWPIWC (linker 1-5-15 via TATA, also called 80-09-02-N008) [BCY7390]",17.1
16,Ac-CPFGCMKNWSYPIWC (linker 1-5-15 via TATA) [BCY7590],38.5
17,Ac-CGFGCMKNWSWPIWC (linker 1-5-15 via TATA) [BCY7607],77
18,"Ac-CPFGCMKNWSDPIWC (linker 1-5-15 via TATA, also called 80-09-02-N022) [BCY7540]",357
19,Ac-CPFGCMKNWSFPIWC (linker 1-5-15 via TATA) [BCY7589],34.5
20,Ac-CPFGCMKNWSWPIYC (linker 1-5-15 via TATA) [BCY7597],169
21,Ac-CPFGCMKNWSWPIFC (linker 1-5-15 via TATA) [BCY7596],353
22,"Ac-CPFGCMDNWSWPIWC (linker 1-5-15 via TATA, also called 80-09-02-N048) [BCY7659]",77.9
23,Ac-QKWCAPL[dA]DYWCNRIC (linker 4-12-16 via TATA) [BCY7639],490
24,Ac-CPFGCMKN[2Nal]SWPIWC (linker 1-5-15 via TATA) [BCY7664],70
25,Ac-CP[2Pal]GCMKNWSWPIWC (linker 1-5-15 via TATA) [BCY7620],246
26,"ACPFGCMKNWSWPIWCA (linker 2-6-16 via TATA, also called 80-09-02-N002) [BCY428]",61
27,Ac-[Phe(4-COOH)]CPFGCMKNWSWPIWC (linker 2-6-16 via TATA) [BCY7656],71.9
28,CPF[dD]CM[hArg]NWSTPIWC (linker 1-5-15 via TATA) [BCY7793],42

# More lines, in order of falling Ki, values ahead:
row,Ki [nM],Binder
1,33.6,"Ac-CPFGCMSNWSWPIWC (linker 1-5-15 via TATA, also called 80-09-02-N047) [BCY7658]"
2,31,Ac-AKWCAPLSDYWCNRIC (linker 4-12-16 via TATA) [BCY7622]
3,29.4,"Ac-CPFGCMKDWSWPIWC (linker 1-5-15 via TATA, also called 80-09-02-N050) [BCY7661]"
4,27.3,Ac-CPFGCMKNWSWPI[2Nal]C (linker 1-5-15 via TATA) [BCY7667]
5,27,Ac-CPF[dD]CM[hArg]KWSTPIWC (linker 1-5-15 via TATA) [BCY7822]
6,26.2,Ac-CPFGCM[hArg]NWSWPIWC (linker 1-5-15 via TATA) [BCY7660]
7,26.1,[βAla][Sar][Sar][Sar][Sar][Sar]CPF[dD]CM[hArg]NWSWPIWC (linker 7-11-21 via TATA) [BCY7556]
8,25.5,Ac-CPFGCMKN[1Nal]SWPIWC (linker 1-5-15 via TATA) [BCY7663]
9,24.1,"Ac-CPFGCMKNWSTPIWC (linker 1-5-15 via TATA, also called 80-09-02-N054) [BCY7665]"
10,24,Ac-[dA]KWCAPLSDYWCNRIC (linker 4-12-16 via TATA) [BCY7634]
11,22.5,[βAla][Sar][Sar][Sar][Sar][Sar]CPF[dA]CM[hArg]NWSWPIWC (linker 7-11-21 via TATA) [BCY7557]
12,21.9,{Ac-βAla}-[Sar][Sar][Sar][Sar][Sar]CPF[dD]CM[hArg]NWSWPIWC (linker 6-10-20 via TATA) [BCY7558]
13,21.4,Ac-CPF[dD]CL[hArg]NWSTPIWC (linker 1-5-15 via TATA) [BCY8039]
14,21,Ac-QAWCAPLSDYWCNRIC (linker 4-12-16 via TATA) [BCY7623]
15,21,Ac-CPFGCMPNWSWPIWC (linker 1-5-15 via TATA) [BCY7614]
16,19,Ac-QKWCAPLSDYWCARIC (linker 4-12-16 via TATA) [BCY7631]
17,19,Ac-QKWCAPLSDYWC[dA]RIC (linker 4-12-16 via TATA) [BCY7643]
18,17,{Ac-βAla}-[Sar][Sar][Sar][Sar][Sar]CPF[dA]CM[hArg]NWSWPIWC (linker 6-10-20 via TATA) [BCY7559]
19,15.2,Ac-Q[dA]WCAPLSDYWCNRIC (linker 4-12-16 via TATA) [BCY7635]
20,15.1,Ac-CPF[dD]CM[hArg]NWSTPKWC (linker 1-5-15 via TATA) [BCY8085]
21,14.8,"Ac-CPFGCMKHWSWPIWC (linker 1-5-15 via TATA, also called 80-09-02-N051) [BCY7662]"
22,10.8,Ac-CPY[dD]CM[hArg]NWSTPIWC (linker 1-5-15 via TATA) [BCY8040]
23,8,Ac-CPF[dD]CL[hArg]NWSTPPWC (linker 1-5-15 via TATA) [BCY8038]
24,7.5,Ac-CPF[dD]CM[hArg]NWSTPPWC (linker 1-5-15 via TATA) [BCY8036]
